Results on one molecule are retold here after patent US20250122303A1 (HUMMINGBIRD BIOSCIENCE PTE, published 2025).

By IC50 is commonly meant the concentration at which inhibition is half-maximal. In general, koff refers to a measure of how fast the partners let go of each other. Higher therefore signals a short-lived complex. In general, EC50 refers to the concentration at which the effect is half-maximal. A higher EC50 goes with a need for much substance.

Experiment [1] addresses T1, human HER4 expressed on HEK293 cells (human, UniProt Q15303 26-1308).
T1 construct: whole, on cells; also called HEK293 HER4 overexpressing cells; cell-surface expressed HER4
The experiment can be described thus: flow cytometry on HEK293 HER4 overexpressing cells. As to the method: Also included was a commercial anti-HER4 antibody (Novus, Cat: FAB11311P). Unstained HEK293 cells were included in the analysis as negative controls.
HEK293 cells were incubated with 10 μg/ml of each antibody for 1 hour at 4° C. Flow cytometry was performed as described above. Cells were contacted with FITC-conjugated anti-FC antibody (Invitrogen, USA) at for 30 min at 4° C.
On the technique in general: In flow cytometry, cells or beads pass a laser one at a time.

Experiment [2] concerns the target T2, recombinant biotinylated human HER3 protein (human, UniProt P21860 20-643, limits assumed, biotinylated, site not stated).
T2 construct: also called HER3-biotin
The experiment in a line: plate ELISA dimerisation assay; human EGFR-His coated, constant HER3-biotin and NRG, antibody varied; blocked partner EGFR-His. As to the method:
Plate-based ELISA dimerisation assays were performed according to standard protocols. Plate was coated with 1 μg/ml human EGFR-His. […] Plates were then washed and incubated for 1 hour with secondary anti-avidin HRP antibody. […] The absorbance was read at 450 nm.
A general note: In an ELISA, binding on a coated surface is turned into a signal by an enzyme label.

For the next experiment, the target named is T3, His-tagged human HER3 (human, UniProt P21860 20-643).
T3 construct: Antigen of the BLI experiments and of the HER2-Fc dimerisation ELISA; also called HER3 His; not shown: His tag
The experiment can be described thus: BLI (Octet QK384), antibody on anti-human IgG capture tips, His-tagged human HER3 35-278 nM, global 1:1 fit; kdis Error 1.15E-04. As to the method: The anti-HER3 antibody clones in IgG1 format were analysed for binding affinity to human HER3. Bio-Layer Interferometry (BLI) experiments were performed using the Octet QK384 system (ForteBio). anti-Human IgG Capture (AHC) Octet sensor tips (Pall ForteBio, USA) were used to anti-HER3 antibodies (25 nM). All measurements were performed at 25° C. with agitation at 1000 rpm. […] Sensograms were referenced for buffer effects and then fitted using the Octet QK384 user software (Pall ForteBio, USA). Kinetic responses were subjected to a global fitting using a one site binding model to obtain values for association (Kₒₙ), dissociation (Koff) rate constants and the equilibrium dissociation constant (KD). Only curves that could be reliably fitted with the software (R²>0.90) were included in the analysis.
In general terms: Biolayer interferometry detects binding as a change in optical thickness at a sensor tip.

For another experiment, the target named is T4, human HER3 polypeptide (human, UniProt P21860 20-643).
T4 construct: Recombinant antigen of the ELISAs; also called human HER3 (Sino Biological Inc.); human antigen HER3
The experiment can be described thus: ELISA; plate coated with target polypeptide, antibody serially diluted, absorbance 450 nm. As to the method: The antibodies were analysed for their ability to bind to human HER3 polypeptide as well as human HER1 (EGFR) and human HER2 (Sino Biological Inc., China).
ELISAs were carried out according to standard protocols. Plates were coated with 0.1 μg/ml of target polypeptide in phosphate-buffered saline (PBS) for 16 h at 4° C. After blocking for 1 h with 1% BSA in Tris buffer saline (TBS) at room temperature, the anti-HER3 antibody was serially diluted with the highest concentration being 10 μg/ml, and added to the plate. Post 1 h incubation at room temperature, plates were washed three times with TBS containing 0.05% Tween 20 (TBS-T) and were then incubated with a HRP-conjugated anti-His antibody (Life Technologies, Inc., USA) for 1 h at room temperature. After washing, plates were developed with colorimetric detection substrate 3,3′,5,5′-tetramethylbenzidine (Turbo-TMB; Pierce, USA) for 10 min. The reaction was stopped with 2M H₂SO₄, and OD was measured at 450 nm.

T1 sequence (Q15303 26-1308): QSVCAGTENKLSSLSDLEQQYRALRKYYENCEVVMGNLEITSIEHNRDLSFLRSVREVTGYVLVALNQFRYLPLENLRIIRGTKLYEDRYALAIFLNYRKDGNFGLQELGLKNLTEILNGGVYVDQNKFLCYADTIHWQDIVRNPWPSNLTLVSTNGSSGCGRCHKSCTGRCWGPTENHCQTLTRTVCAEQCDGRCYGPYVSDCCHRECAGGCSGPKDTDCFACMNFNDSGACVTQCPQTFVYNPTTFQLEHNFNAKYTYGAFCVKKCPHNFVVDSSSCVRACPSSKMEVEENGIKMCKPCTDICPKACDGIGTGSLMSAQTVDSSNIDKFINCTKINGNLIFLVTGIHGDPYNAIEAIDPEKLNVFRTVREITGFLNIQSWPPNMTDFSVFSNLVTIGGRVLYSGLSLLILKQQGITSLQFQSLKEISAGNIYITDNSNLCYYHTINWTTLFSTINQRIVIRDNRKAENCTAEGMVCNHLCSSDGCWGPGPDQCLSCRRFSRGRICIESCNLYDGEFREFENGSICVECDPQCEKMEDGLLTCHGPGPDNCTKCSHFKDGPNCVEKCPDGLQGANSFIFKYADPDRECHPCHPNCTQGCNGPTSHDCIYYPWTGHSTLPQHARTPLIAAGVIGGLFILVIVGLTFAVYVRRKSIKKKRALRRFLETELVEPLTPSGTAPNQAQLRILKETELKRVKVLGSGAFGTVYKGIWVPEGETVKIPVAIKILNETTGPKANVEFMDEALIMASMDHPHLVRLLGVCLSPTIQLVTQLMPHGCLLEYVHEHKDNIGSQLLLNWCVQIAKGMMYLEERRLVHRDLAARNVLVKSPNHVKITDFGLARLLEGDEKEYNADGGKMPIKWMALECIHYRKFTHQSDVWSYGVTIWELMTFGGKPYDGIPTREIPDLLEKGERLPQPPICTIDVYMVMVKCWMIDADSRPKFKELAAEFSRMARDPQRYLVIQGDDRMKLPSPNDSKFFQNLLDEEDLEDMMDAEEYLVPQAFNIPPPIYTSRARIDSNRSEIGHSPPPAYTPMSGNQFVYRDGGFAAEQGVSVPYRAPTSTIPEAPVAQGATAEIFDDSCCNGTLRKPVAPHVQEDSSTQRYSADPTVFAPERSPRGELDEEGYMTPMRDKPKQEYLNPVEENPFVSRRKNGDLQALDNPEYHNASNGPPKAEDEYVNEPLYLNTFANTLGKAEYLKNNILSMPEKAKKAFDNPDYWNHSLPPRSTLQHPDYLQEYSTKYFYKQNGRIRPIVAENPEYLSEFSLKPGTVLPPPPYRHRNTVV

B1: 10D1F.FcA (anti-HER3 clone 10D1_c89 IgG1) (antibody)
heavy: not shown
light: DIQMTQSPSSVSASVGDRVTITCKASQIVGSNVAWYQQKPGKAPEPLIYSASYLYSGVPSRFSGSGSGTDFTLTISSLQPEDFATYYCQQYSSHPLTFGQGTKLEIKRTVAAPSVFIFPPSDEQLKSGTASVVCLLNNFYPREAKVQWKVDNALQSGNSQESVTEQDSKDSTYSLSSTLTLSKADYEKHKVYACEVTHQGLSSPVTKSFNRGEC
notes: also called 10D1F.A; HMBD-001
Regarding B1, the binding result in experiment [1] is “no binding”. For the same molecule, in experiment [2], the IC50 was 4.78 nM. The koff with His-tagged human HER3 was determined as 2.16e-05 s⁻¹. For the same molecule, in the experiment with human HER3 polypeptide, the EC50 is 0.0144 nM.
